Experimental data: paper PMC4980159 (Biochemistry, 2016)
Read-outs that look alike come from different tables or passages of the source.

Columns and labels:
[1] = biological target: CEACAM5 N-terminal domain (Homo sapiens) (UniProt P06731); conditions: cited from earlier work
[2] = biological target: Fibronectin (Homo sapiens) (UniProt P02751); conditions: cited from earlier work
[3] = biological target: CEACAM5 N-terminal domain (Homo sapiens) (UniProt P06731); conditions: cited from earlier work; remark: listed apart in the source
Target sequence in this assay (P06731 35-144): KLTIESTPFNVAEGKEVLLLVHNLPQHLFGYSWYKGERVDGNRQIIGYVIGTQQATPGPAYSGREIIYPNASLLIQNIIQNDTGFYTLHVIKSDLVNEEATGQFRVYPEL

[4] = biological target: Fluorescently labeled NCCM1 H139C (human) (UniProt P13688); experiment: fluorescence polarisation
[5] = biological target: Fluorescently labeled NCCM3 H139C (human) (UniProt P40198); experiment: fluorescence polarisation
[6] = biological target: Recombinant OpaD reconstituted into liposomes (N. gonorrhoeae strain FA1090, UniProt Q04883 2-243); experiment: fluorescence polarisation

Fibronectin (Homo sapiens), sequence (P02751 32-2477): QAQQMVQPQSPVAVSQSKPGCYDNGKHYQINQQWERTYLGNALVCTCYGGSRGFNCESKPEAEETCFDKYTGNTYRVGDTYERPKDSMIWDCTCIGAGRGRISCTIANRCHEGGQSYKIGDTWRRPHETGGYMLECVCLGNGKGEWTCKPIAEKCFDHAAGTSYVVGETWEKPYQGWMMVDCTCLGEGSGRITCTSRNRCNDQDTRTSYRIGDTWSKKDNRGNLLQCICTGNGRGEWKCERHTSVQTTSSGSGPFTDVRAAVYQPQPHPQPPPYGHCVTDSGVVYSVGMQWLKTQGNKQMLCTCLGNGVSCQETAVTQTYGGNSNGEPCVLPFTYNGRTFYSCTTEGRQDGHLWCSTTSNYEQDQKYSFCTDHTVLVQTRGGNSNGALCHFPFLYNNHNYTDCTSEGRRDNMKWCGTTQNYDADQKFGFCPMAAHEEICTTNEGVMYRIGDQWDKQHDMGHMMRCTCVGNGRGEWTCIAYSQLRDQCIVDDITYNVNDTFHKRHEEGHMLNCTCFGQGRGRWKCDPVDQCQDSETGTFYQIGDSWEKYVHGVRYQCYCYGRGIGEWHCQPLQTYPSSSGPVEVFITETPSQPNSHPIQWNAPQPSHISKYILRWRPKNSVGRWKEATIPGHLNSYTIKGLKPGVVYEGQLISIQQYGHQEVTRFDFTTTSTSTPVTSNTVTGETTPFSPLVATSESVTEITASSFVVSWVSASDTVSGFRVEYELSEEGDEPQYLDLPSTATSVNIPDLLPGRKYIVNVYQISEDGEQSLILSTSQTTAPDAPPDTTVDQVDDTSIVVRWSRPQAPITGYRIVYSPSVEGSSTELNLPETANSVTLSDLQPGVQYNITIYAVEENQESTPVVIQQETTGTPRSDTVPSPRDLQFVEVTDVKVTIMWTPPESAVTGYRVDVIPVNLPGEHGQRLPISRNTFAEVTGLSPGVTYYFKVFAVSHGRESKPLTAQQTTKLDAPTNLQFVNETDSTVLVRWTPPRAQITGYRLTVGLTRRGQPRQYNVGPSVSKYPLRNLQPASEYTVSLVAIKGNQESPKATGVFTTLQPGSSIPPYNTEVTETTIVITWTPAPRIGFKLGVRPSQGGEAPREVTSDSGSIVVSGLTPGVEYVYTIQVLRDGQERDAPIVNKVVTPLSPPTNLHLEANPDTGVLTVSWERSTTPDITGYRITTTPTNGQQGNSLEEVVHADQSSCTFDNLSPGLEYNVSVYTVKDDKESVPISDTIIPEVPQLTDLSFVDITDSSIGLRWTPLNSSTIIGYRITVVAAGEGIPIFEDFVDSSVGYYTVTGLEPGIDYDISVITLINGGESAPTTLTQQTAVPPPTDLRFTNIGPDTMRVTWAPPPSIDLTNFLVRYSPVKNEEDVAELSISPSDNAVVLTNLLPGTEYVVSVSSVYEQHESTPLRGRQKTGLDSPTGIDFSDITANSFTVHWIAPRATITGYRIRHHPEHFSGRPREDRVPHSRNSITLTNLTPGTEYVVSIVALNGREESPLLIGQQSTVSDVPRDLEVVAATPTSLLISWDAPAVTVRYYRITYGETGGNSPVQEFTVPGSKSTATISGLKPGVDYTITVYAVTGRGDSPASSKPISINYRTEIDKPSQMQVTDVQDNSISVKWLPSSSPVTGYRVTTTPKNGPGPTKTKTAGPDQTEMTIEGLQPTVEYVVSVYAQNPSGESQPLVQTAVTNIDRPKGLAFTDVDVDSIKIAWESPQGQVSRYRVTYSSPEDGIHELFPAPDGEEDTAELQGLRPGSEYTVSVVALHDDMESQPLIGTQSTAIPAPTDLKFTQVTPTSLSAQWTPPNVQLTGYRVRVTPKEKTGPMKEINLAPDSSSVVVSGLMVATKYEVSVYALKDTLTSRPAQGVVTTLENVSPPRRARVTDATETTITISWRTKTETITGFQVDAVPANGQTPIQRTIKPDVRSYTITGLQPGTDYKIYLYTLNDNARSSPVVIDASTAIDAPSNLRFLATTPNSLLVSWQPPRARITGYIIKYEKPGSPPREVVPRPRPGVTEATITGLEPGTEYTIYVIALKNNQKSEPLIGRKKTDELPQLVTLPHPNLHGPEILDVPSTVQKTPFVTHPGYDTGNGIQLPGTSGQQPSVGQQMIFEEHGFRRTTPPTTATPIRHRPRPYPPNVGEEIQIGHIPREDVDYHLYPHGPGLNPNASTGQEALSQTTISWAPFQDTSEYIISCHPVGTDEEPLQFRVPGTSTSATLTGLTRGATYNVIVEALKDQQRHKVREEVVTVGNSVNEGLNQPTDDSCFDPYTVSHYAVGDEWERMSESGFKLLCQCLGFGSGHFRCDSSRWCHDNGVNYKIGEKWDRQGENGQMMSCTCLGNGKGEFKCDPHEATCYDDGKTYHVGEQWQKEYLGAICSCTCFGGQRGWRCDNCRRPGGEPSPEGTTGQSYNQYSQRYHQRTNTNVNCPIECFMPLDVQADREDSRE

CEACAM5 N-terminal domain (from UniProt P06731)
Kd [1]: 100 nM
Kd [2]: 16 nM

CEACAM5 A3 domain (from UniProt P06731)
Kd [3]: 18 nM

Recombinant Opa60 reconstituted into liposomes (natural protein)
Kd [4]: 1.6 nM
Kd [5]: 4.3 nM

B1: Fluorescently labeled NCCM1 H139C (domain or fragment, human, UniProt P13688-1 35-141, looked up)
chain: QLTTESMPFNVAEGKEVLLLVHNLPQQLFGYSWYKGERVDGNRQIVGYAIGTQQATPGPANSGRETIYPNASLLIQNVTQNDTGFYTLQVIKSDLVNEEATGQFCVY
modifications: AMS (4-acetamido-4'-maleimidylstilbene-2,2'-disulfonic acid) on the introduced cysteine (H139C)
Kd [6]: 2.6 ± 1.3 nM

B2: Fluorescently labeled NCCM3 H139C (domain or fragment, human)
chain: PGSGAKLTIESMPLSVAEGKEVLLLVHNLPQHLFGYSWYKGERVDGNSLIVGYVIGTQQATPGAAYSGRETIYTNASLLIQNVTQNDIGFYTLQVIKSDLVNEEATGQFCVYQ
modifications: AMS (4-acetamido-4'-maleimidylstilbene-2,2'-disulfonic acid) on the introduced cysteine (H139C)
Kd [6]: 6.8 ± 2.2 nM
